From US20180155451A1 (published 2018)

biological target: T1, FcγRIa extracellular domain with C-terminal His tag (human, UniProt P12314 16-292); assay: SPR (Biacore), captured antibody, FcγRIa analyte; relative to GpH7-B3/GpL16-k0 = 100
T1 construct: extracellular domain; Expressed in FreeStyle293 cells; used as analyte in Biacore; also called FcgRI; 1a; not shown: His tag at the C terminus
T1 sequence (P12314 16-292): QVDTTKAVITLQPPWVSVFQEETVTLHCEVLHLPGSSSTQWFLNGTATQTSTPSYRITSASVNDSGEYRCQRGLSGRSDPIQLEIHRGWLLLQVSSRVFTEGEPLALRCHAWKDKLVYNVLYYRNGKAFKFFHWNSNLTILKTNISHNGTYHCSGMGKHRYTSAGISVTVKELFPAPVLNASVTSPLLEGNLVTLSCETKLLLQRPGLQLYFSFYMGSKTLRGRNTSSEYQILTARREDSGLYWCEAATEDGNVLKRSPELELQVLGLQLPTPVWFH

Binder | Ho/Con_1a
GpH7-B3 variant (T335_10E)/GpL16-k0 (antibody, human IgG1, kappa, Homodimerized; both H chains altered; also called Ho Ab T335_10E) heavy: not shown light: DIVMTQSPLSLPVTPGEPASISCQASESLVHSNRNTYLHWYLQKPGQSPQLLIYKVSNRFSGVPDRFSGSGSGTDFTLKISRVEAEDVGVYYCSQNTHVPPTFGQGTKVEIERTVAAPSVFIFPPSDEQLKSGTASVVCLLNNFYPREAKVQWKVDNALQSGNSQESVTEQDSKDSTYSLSSTLTLSKADYEKHKVYACEVTHQGLSSPVTKSFNRGEC | 108 % of control
GpH7-B3 variant (T335_12R)/GpL16-k0 (antibody, human IgG1, kappa, Homodimerized; both H chains altered; also called Ho Ab T335_12R) heavy: not shown light: DIVMTQSPLSLPVTPGEPASISCQASESLVHSNRNTYLHWYLQKPGQSPQLLIYKVSNRFSGVPDRFSGSGSGTDFTLKISRVEAEDVGVYYCSQNTHVPPTFGQGTKVEIERTVAAPSVFIFPPSDEQLKSGTASVVCLLNNFYPREAKVQWKVDNALQSGNSQESVTEQDSKDSTYSLSSTLTLSKADYEKHKVYACEVTHQGLSSPVTKSFNRGEC | 106 % of control
GpH7-B3 variant (T335_19Q)/GpL16-k0 (antibody, human IgG1, kappa, Homodimerized; both H chains altered; also called Ho Ab T335_19Q) heavy: not shown light: DIVMTQSPLSLPVTPGEPASISCQASESLVHSNRNTYLHWYLQKPGQSPQLLIYKVSNRFSGVPDRFSGSGSGTDFTLKISRVEAEDVGVYYCSQNTHVPPTFGQGTKVEIERTVAAPSVFIFPPSDEQLKSGTASVVCLLNNFYPREAKVQWKVDNALQSGNSQESVTEQDSKDSTYSLSSTLTLSKADYEKHKVYACEVTHQGLSSPVTKSFNRGEC | 105 % of control
GpH7-B3 variant (T335_20W)/GpL16-k0 (antibody, human IgG1, kappa, Homodimerized; both H chains altered; also called Ho Ab T335_20W) heavy: not shown light: DIVMTQSPLSLPVTPGEPASISCQASESLVHSNRNTYLHWYLQKPGQSPQLLIYKVSNRFSGVPDRFSGSGSGTDFTLKISRVEAEDVGVYYCSQNTHVPPTFGQGTKVEIERTVAAPSVFIFPPSDEQLKSGTASVVCLLNNFYPREAKVQWKVDNALQSGNSQESVTEQDSKDSTYSLSSTLTLSKADYEKHKVYACEVTHQGLSSPVTKSFNRGEC | 104 % of control
GpH7-B3 variant (Y296_06M)/GpL16-k0 (antibody, human IgG1, kappa, Homodimerized; both H chains altered; also called Ho Ab Y296_06M) heavy: not shown light: DIVMTQSPLSLPVTPGEPASISCQASESLVHSNRNTYLHWYLQKPGQSPQLLIYKVSNRFSGVPDRFSGSGSGTDFTLKISRVEAEDVGVYYCSQNTHVPPTFGQGTKVEIERTVAAPSVFIFPPSDEQLKSGTASVVCLLNNFYPREAKVQWKVDNALQSGNSQESVTEQDSKDSTYSLSSTLTLSKADYEKHKVYACEVTHQGLSSPVTKSFNRGEC | 104 % of control
GpH7-B3 variant (T335_15Y)/GpL16-k0 (antibody, human IgG1, kappa, Homodimerized; both H chains altered; also called Ho Ab T335_15Y) heavy: not shown light: DIVMTQSPLSLPVTPGEPASISCQASESLVHSNRNTYLHWYLQKPGQSPQLLIYKVSNRFSGVPDRFSGSGSGTDFTLKISRVEAEDVGVYYCSQNTHVPPTFGQGTKVEIERTVAAPSVFIFPPSDEQLKSGTASVVCLLNNFYPREAKVQWKVDNALQSGNSQESVTEQDSKDSTYSLSSTLTLSKADYEKHKVYACEVTHQGLSSPVTKSFNRGEC | 106 % of control
GpH7-B3 variant (Y296_11K)/GpL16-k0 (antibody, human IgG1, kappa, Homodimerized; both H chains altered; also called Ho Ab Y296_11K) heavy: not shown light: DIVMTQSPLSLPVTPGEPASISCQASESLVHSNRNTYLHWYLQKPGQSPQLLIYKVSNRFSGVPDRFSGSGSGTDFTLKISRVEAEDVGVYYCSQNTHVPPTFGQGTKVEIERTVAAPSVFIFPPSDEQLKSGTASVVCLLNNFYPREAKVQWKVDNALQSGNSQESVTEQDSKDSTYSLSSTLTLSKADYEKHKVYACEVTHQGLSSPVTKSFNRGEC | 102 % of control
GpH7-B3 variant (Y296_20W)/GpL16-k0 (antibody, human IgG1, kappa, Homodimerized; both H chains altered; also called Ho Ab Y296_20W) heavy: not shown light: DIVMTQSPLSLPVTPGEPASISCQASESLVHSNRNTYLHWYLQKPGQSPQLLIYKVSNRFSGVPDRFSGSGSGTDFTLKISRVEAEDVGVYYCSQNTHVPPTFGQGTKVEIERTVAAPSVFIFPPSDEQLKSGTASVVCLLNNFYPREAKVQWKVDNALQSGNSQESVTEQDSKDSTYSLSSTLTLSKADYEKHKVYACEVTHQGLSSPVTKSFNRGEC | 106 % of control
GpH7-B3 variant (Y296_12R)/GpL16-k0 (antibody, human IgG1, kappa, Homodimerized; both H chains altered; also called Ho Ab Y296_12R) heavy: not shown light: DIVMTQSPLSLPVTPGEPASISCQASESLVHSNRNTYLHWYLQKPGQSPQLLIYKVSNRFSGVPDRFSGSGSGTDFTLKISRVEAEDVGVYYCSQNTHVPPTFGQGTKVEIERTVAAPSVFIFPPSDEQLKSGTASVVCLLNNFYPREAKVQWKVDNALQSGNSQESVTEQDSKDSTYSLSSTLTLSKADYEKHKVYACEVTHQGLSSPVTKSFNRGEC | 103 % of control
GpH7-B3 variant (T335_16H)/GpL16-k0 (antibody, human IgG1, kappa, Homodimerized; both H chains altered; also called Ho Ab T335_16H) heavy: not shown light: DIVMTQSPLSLPVTPGEPASISCQASESLVHSNRNTYLHWYLQKPGQSPQLLIYKVSNRFSGVPDRFSGSGSGTDFTLKISRVEAEDVGVYYCSQNTHVPPTFGQGTKVEIERTVAAPSVFIFPPSDEQLKSGTASVVCLLNNFYPREAKVQWKVDNALQSGNSQESVTEQDSKDSTYSLSSTLTLSKADYEKHKVYACEVTHQGLSSPVTKSFNRGEC | 104 % of control
GpH7-B3 variant (Y300_03V)/GpL16-k0 (antibody, human IgG1, kappa, Homodimerized; both H chains altered; also called Ho Ab Y300_03V) heavy: not shown light: DIVMTQSPLSLPVTPGEPASISCQASESLVHSNRNTYLHWYLQKPGQSPQLLIYKVSNRFSGVPDRFSGSGSGTDFTLKISRVEAEDVGVYYCSQNTHVPPTFGQGTKVEIERTVAAPSVFIFPPSDEQLKSGTASVVCLLNNFYPREAKVQWKVDNALQSGNSQESVTEQDSKDSTYSLSSTLTLSKADYEKHKVYACEVTHQGLSSPVTKSFNRGEC | 112 % of control
GpH7-B3 variant (T335_11K)/GpL16-k0 (antibody, human IgG1, kappa, Homodimerized; both H chains altered; also called Ho Ab T335_11K) heavy: not shown light: DIVMTQSPLSLPVTPGEPASISCQASESLVHSNRNTYLHWYLQKPGQSPQLLIYKVSNRFSGVPDRFSGSGSGTDFTLKISRVEAEDVGVYYCSQNTHVPPTFGQGTKVEIERTVAAPSVFIFPPSDEQLKSGTASVVCLLNNFYPREAKVQWKVDNALQSGNSQESVTEQDSKDSTYSLSSTLTLSKADYEKHKVYACEVTHQGLSSPVTKSFNRGEC | 103 % of control
GpH7-B3 variant (T335_18N)/GpL16-k0 (antibody, human IgG1, kappa, Homodimerized; both H chains altered; also called Ho Ab T335_18N) heavy: not shown light: DIVMTQSPLSLPVTPGEPASISCQASESLVHSNRNTYLHWYLQKPGQSPQLLIYKVSNRFSGVPDRFSGSGSGTDFTLKISRVEAEDVGVYYCSQNTHVPPTFGQGTKVEIERTVAAPSVFIFPPSDEQLKSGTASVVCLLNNFYPREAKVQWKVDNALQSGNSQESVTEQDSKDSTYSLSSTLTLSKADYEKHKVYACEVTHQGLSSPVTKSFNRGEC | 102 % of control
GpH7-B3 variant (Y296_16H)/GpL16-k0 (antibody, human IgG1, kappa, Homodimerized; both H chains altered; also called Ho Ab Y296_16H) heavy: not shown light: DIVMTQSPLSLPVTPGEPASISCQASESLVHSNRNTYLHWYLQKPGQSPQLLIYKVSNRFSGVPDRFSGSGSGTDFTLKISRVEAEDVGVYYCSQNTHVPPTFGQGTKVEIERTVAAPSVFIFPPSDEQLKSGTASVVCLLNNFYPREAKVQWKVDNALQSGNSQESVTEQDSKDSTYSLSSTLTLSKADYEKHKVYACEVTHQGLSSPVTKSFNRGEC | 105 % of control
GpH7-B3 variant (Y300_02A)/GpL16-k0 (antibody, human IgG1, kappa, Homodimerized; both H chains altered; also called Ho Ab Y300_02A) heavy: not shown light: DIVMTQSPLSLPVTPGEPASISCQASESLVHSNRNTYLHWYLQKPGQSPQLLIYKVSNRFSGVPDRFSGSGSGTDFTLKISRVEAEDVGVYYCSQNTHVPPTFGQGTKVEIERTVAAPSVFIFPPSDEQLKSGTASVVCLLNNFYPREAKVQWKVDNALQSGNSQESVTEQDSKDSTYSLSSTLTLSKADYEKHKVYACEVTHQGLSSPVTKSFNRGEC | 110 % of control

Other lines, results leading:

Ho/Con_1a | Binder
109 % of control | GpH7-B3 variant (Y300_08L)/GpL16-k0 (antibody, human IgG1, kappa, Homodimerized; both H chains altered; also called Ho Ab Y300_08L) heavy: not shown light: DIVMTQSPLSLPVTPGEPASISCQASESLVHSNRNTYLHWYLQKPGQSPQLLIYKVSNRFSGVPDRFSGSGSGTDFTLKISRVEAEDVGVYYCSQNTHVPPTFGQGTKVEIERTVAAPSVFIFPPSDEQLKSGTASVVCLLNNFYPREAKVQWKVDNALQSGNSQESVTEQDSKDSTYSLSSTLTLSKADYEKHKVYACEVTHQGLSSPVTKSFNRGEC
110 % of control | GpH7-B3 variant (Y300_14T)/GpL16-k0 (antibody, human IgG1, kappa, Homodimerized; both H chains altered; also called Ho Ab Y300_14T) heavy: not shown light: DIVMTQSPLSLPVTPGEPASISCQASESLVHSNRNTYLHWYLQKPGQSPQLLIYKVSNRFSGVPDRFSGSGSGTDFTLKISRVEAEDVGVYYCSQNTHVPPTFGQGTKVEIERTVAAPSVFIFPPSDEQLKSGTASVVCLLNNFYPREAKVQWKVDNALQSGNSQESVTEQDSKDSTYSLSSTLTLSKADYEKHKVYACEVTHQGLSSPVTKSFNRGEC
110 % of control | GpH7-B3 variant (Y300_19Q)/GpL16-k0 (antibody, human IgG1, kappa, Homodimerized; both H chains altered; also called Ho Ab Y300_19Q) heavy: not shown light: DIVMTQSPLSLPVTPGEPASISCQASESLVHSNRNTYLHWYLQKPGQSPQLLIYKVSNRFSGVPDRFSGSGSGTDFTLKISRVEAEDVGVYYCSQNTHVPPTFGQGTKVEIERTVAAPSVFIFPPSDEQLKSGTASVVCLLNNFYPREAKVQWKVDNALQSGNSQESVTEQDSKDSTYSLSSTLTLSKADYEKHKVYACEVTHQGLSSPVTKSFNRGEC
111 % of control | GpH7-B3 variant (Y300_06M)/GpL16-k0 (antibody, human IgG1, kappa, Homodimerized; both H chains altered; also called Ho Ab Y300_06M) heavy: not shown light: DIVMTQSPLSLPVTPGEPASISCQASESLVHSNRNTYLHWYLQKPGQSPQLLIYKVSNRFSGVPDRFSGSGSGTDFTLKISRVEAEDVGVYYCSQNTHVPPTFGQGTKVEIERTVAAPSVFIFPPSDEQLKSGTASVVCLLNNFYPREAKVQWKVDNALQSGNSQESVTEQDSKDSTYSLSSTLTLSKADYEKHKVYACEVTHQGLSSPVTKSFNRGEC
101 % of control | GpH7-B3 variant (Y300_11K)/GpL16-k0 (antibody, human IgG1, kappa, Homodimerized; both H chains altered; also called Ho Ab Y300_11K) heavy: not shown light: DIVMTQSPLSLPVTPGEPASISCQASESLVHSNRNTYLHWYLQKPGQSPQLLIYKVSNRFSGVPDRFSGSGSGTDFTLKISRVEAEDVGVYYCSQNTHVPPTFGQGTKVEIERTVAAPSVFIFPPSDEQLKSGTASVVCLLNNFYPREAKVQWKVDNALQSGNSQESVTEQDSKDSTYSLSSTLTLSKADYEKHKVYACEVTHQGLSSPVTKSFNRGEC
110 % of control | GpH7-B3 variant (Y300_13S)/GpL16-k0 (antibody, human IgG1, kappa, Homodimerized; both H chains altered; also called Ho Ab Y300_13S) heavy: not shown light: DIVMTQSPLSLPVTPGEPASISCQASESLVHSNRNTYLHWYLQKPGQSPQLLIYKVSNRFSGVPDRFSGSGSGTDFTLKISRVEAEDVGVYYCSQNTHVPPTFGQGTKVEIERTVAAPSVFIFPPSDEQLKSGTASVVCLLNNFYPREAKVQWKVDNALQSGNSQESVTEQDSKDSTYSLSSTLTLSKADYEKHKVYACEVTHQGLSSPVTKSFNRGEC
110 % of control | GpH7-B3 variant (Y300_20W)/GpL16-k0 (antibody, human IgG1, kappa, Homodimerized; both H chains altered; also called Ho Ab Y300_20W) heavy: not shown light: DIVMTQSPLSLPVTPGEPASISCQASESLVHSNRNTYLHWYLQKPGQSPQLLIYKVSNRFSGVPDRFSGSGSGTDFTLKISRVEAEDVGVYYCSQNTHVPPTFGQGTKVEIERTVAAPSVFIFPPSDEQLKSGTASVVCLLNNFYPREAKVQWKVDNALQSGNSQESVTEQDSKDSTYSLSSTLTLSKADYEKHKVYACEVTHQGLSSPVTKSFNRGEC
